In US5668107A, “Compositions and methods for inhibiting elastase” (The UAB Research Foundation, priority 1995, dated 1997):
One block for each molecule: values may come before it. Where no end group is shown, it is not given here.

Experiments:
[1] = target: T1, HNE (human neutrophil elastase) (Homo sapiens, UniProt P08246); assay: Serine protease assay with p-nitroanilide substrate, HNE; type: biochemical
T1 sequence (P08246 30-267): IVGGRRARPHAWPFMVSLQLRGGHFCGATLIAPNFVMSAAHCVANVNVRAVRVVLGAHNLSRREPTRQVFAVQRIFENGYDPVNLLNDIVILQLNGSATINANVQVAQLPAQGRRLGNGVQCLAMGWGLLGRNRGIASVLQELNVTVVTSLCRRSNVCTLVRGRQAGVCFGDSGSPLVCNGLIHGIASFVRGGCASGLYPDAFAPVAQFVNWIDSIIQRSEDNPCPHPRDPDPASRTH
Experimental: (§1) Serine protease assays were performed using p-nitroanalide amide substrates. Trypsin activity was assayed by using Benzyl-PHE-VAL-ARG-PNA (0.5 mg/ml). Chymotrypsin activity was assayed by using SUC-(ALA)2 -PRO-PHE-PNA (SEQ ID NO:5) (10 mg/ml in DMSO). Elastase activity was assayed by using SUC-(ALA)3 -PNA (10 mg/ml in DMSO). The dilution of each of these enzymes required to produce a change in absorbance of approximately 0.4 after a 15 min incubation at 37° C. was initially determined. The complete reaction mixture contained 10 μls of this enzyme dilution plus 100 μls of the appropriate above substrate and 0-50 uls of the indicated concentration of inhibitor or TBS to maintain constant volume. Trypsin, chymotrypsin, and HNE assays were incubated at 37° C. for 15 min, while pancreatic elastase assays were incubated at 37° C. for 1.5 min. The reaction was terminated by the addition of a sufficient quantity of ice cold TBS to bring each assay up to a final volume of 1 ml. The absorbance of the p-nitroaniline produced was measured against a distilled water blank at 410 nm on a Hitachi model 100-40 spectrophotometer. Percent inhibition was calculated as: 100-[(A1 E+I/A1 E)×100].

Chymotrypsin [2] = target: Chymotrypsin (Bos taurus, UniProt P00766); assay: Serine protease assay with p-nitroanilide substrate, chymotrypsin; type: biochemical
Experimental: as §1

Pancreatic elastase = Pancreatic elastase (Homo sapiens, UniProt Q9UNI1); assay: Serine protease assay with p-nitroanilide substrate, pancreatic elastase; type: biochemical; conditions: FIG. 2, preliminary enzyme kinetic experiments, desalted SPAAT preparations
Chain of Pancreatic elastase (Q9UNI1 19-258): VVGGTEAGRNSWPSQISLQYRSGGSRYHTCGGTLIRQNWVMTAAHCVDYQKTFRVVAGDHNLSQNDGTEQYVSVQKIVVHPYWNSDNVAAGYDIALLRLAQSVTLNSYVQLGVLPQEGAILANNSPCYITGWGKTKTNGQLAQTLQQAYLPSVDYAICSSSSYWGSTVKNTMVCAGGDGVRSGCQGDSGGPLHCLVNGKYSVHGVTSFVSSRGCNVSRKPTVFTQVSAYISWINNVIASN
Experimental: as §1

Trypsin = target: T2, Trypsin (Bos taurus, UniProt P00760); assay: Serine protease assay with p-nitroanilide substrate, trypsin; type: biochemical; conditions: FIG. 2, preliminary enzyme kinetic experiments, desalted SPAAT preparations
T2 construct: gene PRSS1
T2 sequence (P00760 24-246): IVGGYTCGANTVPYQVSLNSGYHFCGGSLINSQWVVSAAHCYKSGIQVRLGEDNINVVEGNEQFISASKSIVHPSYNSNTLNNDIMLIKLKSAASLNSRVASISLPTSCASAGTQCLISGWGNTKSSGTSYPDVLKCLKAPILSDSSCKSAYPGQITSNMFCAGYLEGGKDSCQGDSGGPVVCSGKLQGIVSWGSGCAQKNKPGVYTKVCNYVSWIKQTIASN
Experimental: as §1

[3] = target: T3, DFP-treated human neutrophil elastase (Homo sapiens, UniProt P08246); assay: ELISA binding to DFP-treated HNE; conditions: FIG. 3A, 10 μg/ml, corrected for non-specific binding to BSA
T3 sequence (P08246 30-247 limits assumed): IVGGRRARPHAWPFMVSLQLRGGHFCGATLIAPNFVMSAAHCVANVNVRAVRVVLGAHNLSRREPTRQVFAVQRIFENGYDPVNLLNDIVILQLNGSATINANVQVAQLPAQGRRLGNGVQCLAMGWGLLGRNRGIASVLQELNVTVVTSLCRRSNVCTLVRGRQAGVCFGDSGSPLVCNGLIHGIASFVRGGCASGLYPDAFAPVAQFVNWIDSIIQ
Experimental: (§2) Plastic microtiter wells were coated overnight at 4° C. with 100 μls of antigens appropriately diluted in PBS. Plates were washed 3× with approximately 300 μls PBS/well. Any remaining reactive sites were blocked by adding 200 μls 1% BSA in PBS/well and incubating for 1 hr at 37° C. The plates were again washed 3× with approximately 300 μls PBS/well. The rabbit anti-human AAT and HSA polyclonal antibodies were diluted 1/40,000 with PBS containing 0.05% Tween-20. 50 μls of this diluted primary antibody was added/appropriate well. The plate was again incubated for 1 hr at 37° C., then washed 3× with approximately 300 μls PBS/well. 50 μls of an appropriately diluted secondary antibody (goat anti-rabbit IgG diluted 1/16,000) was added/well. The plates were again incubated for 1 hr at 37° C., then washed 5× with approximately 300 μls PBS/well. 50 μls of color developing ortho-phenylenediamine (OPD) solution was added/well. The plates were incubated for 30 min at 37° C. The reaction was finally stopped by the addition of 50 μls/well of 4.5M sulfuric acid and read at 492 nm.
(§3) An ELISA was also developed to quantitate the potential binding affinity of various antigens for AAT (SEQ ID NO:1) and/or SPAAT (SEQ ID NO:4). […]

[4] = target: T4, DFP-treated human neutrophil cathepsin G (Homo sapiens, UniProt P08311); assay: ELISA binding to DFP-treated cathepsin G; conditions: FIG. 3B, 10 μg/ml, corrected for non-specific binding to BSA
T4 sequence (P08311 21-243 limits assumed): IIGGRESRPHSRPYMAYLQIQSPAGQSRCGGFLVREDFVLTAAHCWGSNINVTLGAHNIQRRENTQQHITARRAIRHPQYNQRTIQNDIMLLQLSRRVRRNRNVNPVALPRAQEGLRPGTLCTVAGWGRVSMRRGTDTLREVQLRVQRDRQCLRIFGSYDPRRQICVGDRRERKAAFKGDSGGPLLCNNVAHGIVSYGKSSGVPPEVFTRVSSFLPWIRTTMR
Experimental: as §2, §3

[5] = target: human neutrophil elastase (active enzyme) (human) (UniProt P08246)
Chymotrypsin [6] = assay: enzyme inhibition kinetics with chymotrypsin, p-nitroanilide substrate
[7] = FIG. 2, preliminary enzyme kinetic experiments, desalted SPAAT preparations

Molecule: SPAAT: 44-residue C-terminal fragment of α1 antitrypsin (MET-351 to LYS-394); desalted preparations isolated from human placenta (MFLEAIPMSIPPQVKFNKPFVFLMIEQNTKSPLFMGKVVNPTQK)
- inhibition of chymotrypsin (rank order of inhibition) (Chymotrypsin [2]; [7]): chymotrypsin>HNE>pancreatic elastase
- KI relative to Km, competitive inhibitor of chymotrypsin (Chymotrypsin [2]; preliminary calculations from inhibitor concentrations required to totally inhibit chymotrypsin): ~ 1/10
- inhibition of HNE activity (compared with native AAT) [1, 7]: almost as well as native AAT
- inhibition of pancreatic elastase (rank order of inhibition) (Pancreatic elastase): chymotrypsin>HNE>pancreatic elastase
- effect on trypsin (Trypsin): no effect
- binding to DFP-treated HNE [3]: bound
- binding to DFP-treated cathepsin G [4]: bound

Molecule: α1 Antitrypsin (AMFLEAIPMSIPPEVKFNKPFVFLMIEQNTKSPLFMGKVVNPTQK) [AAT]
- binding to DFP-treated HNE [3]: bound
- binding to DFP-treated cathepsin G [4]: bound

B2: SPAAT isolated from human placenta (44-residue C-terminal fragment of alpha1 antitrypsin) (peptide)
peptide: MFLEAIPMSIPPQVKFNKPFVFLMIEQNTKSPLFMGKVVNPTQK
- Ki (Chymotrypsin [6]): 920 nM

Continued, values first:

- effectiveness as inhibitor of HNE relative to SPAAT isolated from placenta, mole-for-mole ([1]; ratio of the KI values): eight-fold less effective
Molecule: MFLEAIPMSIPPQVKFNKPFVFLMIEQNTKSPLFMGKVVNPTQK [chemically synthesized SPAAT]

- Ki (Chymotrypsin [2]; chymotrypsin as the subject enzyme): 920 nM
Molecule: placental SPAAT: SPAAT isolated from human placenta, associated with collagen in the placental material (MFLEAIPMSIPPQVKFNKPFVFLMIEQNTKSPLFMGKVVNPTQK)

- inhibitory effectiveness, mole-for-mole [5]: 8 fold
- Ki (Chymotrypsin [6]): 7500 nM
B1: chemically synthesized SPAAT (peptide)
peptide: B2 peptide
